Results taken from patent US11833164B2, “Methods of treating Fabry disease in patients having a mutation in the GLA gene” (Amicus Therapeutics, Inc., priority 2019, dated 2023).
Numbering of substitutions follows the chain as printed. In names and notes the source's numbering stands.

B1: A97T (protein)
chain: MQLRNPELHLGCALALRFLALVSWDIPGARALDNGLARTPTMGWLHWERFMCNLDCQEEPDSCISEKLFMEMAELMVSEGWKDAGYEYLCIDDCWMTPQRDSEGRLQADPQRFPHGIRQLANYVHSKGLKLGIYADVGNKTCAGFPGSFGYYDIDAQTFADWGVDLLKFDGCYCDSLENLADGYKHMSLALNRTGRSIVYSCEWPLYMWPFQKPNYTEIRQYCNHWRNFADIDDSWKSIKSILDWTSFNQERIVDVAGPGGWNDPDMLVIGNFGLSWNQQVTQMALWAIMAAPLFMSNDLRHISPQAKALLQDKDVIAINQDPLGKQGYQLRQGDNFEVWERPLSGLAWAVAMINRQEIGGPRSYTIAVASLGKGVACNPACFITQLLPVKRKLGFYEWTSRLRSHINPTGTVLLQLENTMQMSLKDLL
B2: D101E (protein)
chain: B1 chain with T97A, D101E
B3: D101H (protein)
chain: B1 chain with T97A, D101H
B4: Q99P (protein)
chain: B1 chain with T97A, Q99P
B5: P98L (protein)
chain: B1 chain with T97A, P98L
B6: Q99E (protein)
chain: B1 chain with T97A, Q99E
B7: P98R (protein)
chain: B1 chain with T97A, P98R
B8: D101V (protein)
chain: B1 chain with T97A, D101V
B9: Q99R (protein)
chain: B1 chain with T97A, Q99R
B10: D101G (protein)
chain: B1 chain with T97A, D101G
B11: P98H (protein)
chain: B1 chain with T97A, P98H
B12: D101A (protein)
chain: B1 chain with T97A, D101A
B13: Q99L (protein)
chain: B1 chain with T97A, Q99L

These molecules were tested on mutant form of α-Gal A expressed in HEK-293 cells (assay: HEK assay (GLP HEK / Migalastat Amenability Assay): α-Gal A activity in lysates of transiently transfected HEK-293 cells incubated with or without 10 μM migalastat). Settings: 10 μM migalastat versus baseline.
Assay type: cell-based, human
Method: Such mutations or variants are also referred to herein as “HEK assay amenable” mutations or variants.
The α-Gal A activity is expressed as the nmoles of free 4-MU released per milligram of protein per hour (nmol/mg/hr).
In Table 7, values for the mean±standard error of the mean (SEM) were calculated. nmol/mg/hr indicates “nmoles of free 4-MU released per mg of protein per hour”. WT indicates “wild-type”. NC indicates “not calculable”. N/A indicates “not applicable”.

Going from B1 to B2, the “Absolute increase (% WT)” value falls from 21.4 % WT to 10.1 % WT.

Compared with B3, B4 is higher in “Absolute increase (% WT)” value: 7.3 % WT for the first, 19.1 % WT for the second.

First: B5
Second: B6
The “Absolute increase (% WT)” value of the first is lower: 19.6 % WT for the first, 25.5 % WT for the second.

First: B7
Second: B8
The “Absolute increase (% WT)” value of the first is higher: 16.4 % WT for the first, 10.2 % WT for the second.

First: B9
Second: B10
The “Absolute increase (% WT)” value of the first is higher: 21.4 % WT for the first, 12.7 % WT for the second.

Compared with B11, B12 is lower in “Absolute increase (% WT)” value: 22.5 % WT for the first, 10.2 % WT for the second.

With B13 the “Absolute increase (% WT)” value was 27.4 % WT.

Same assay, conditions: 10 μM migalastat α-Gal A activity relative to baseline

First: B1
Second: B2
The Relative increase of the first is higher: 1.8 for the first, 1.4 for the second.

Going from B3 to B4, the Relative increase rises from 1.4 to 3.3.

Going from B5 to B6, the Relative increase rises from 1.3 to 1.4.

First: B7
Second: B8
The Relative increase of the first is lower: 1.3 for the first, 2.2 for the second.

Going from B9 to B10, the Relative increase rises from 1.2 to 1.3.

Going from B11 to B12, the Relative increase rises from 1.4 to 1.5.

For B13, the Relative increase was 1.4.

Same assay, conditions: 10 μM migalastat, 5 days; percentage of baseline wild-type α-Gal A activity; mean ± SEM

First: B1
Second: B2
The “10 μM migalastat α-Gal A activity (% WT)” value of the first is higher: 50.9 ± 2.7 % WT for the first, 34 ± 2.8 % WT for the second.

Compared with B3, B4 is higher in “10 μM migalastat α-Gal A activity (% WT)” value: 23.8 ± 1.3 % WT for the first, 28 ± 2.4 % WT for the second.

B5 and B6 are within error of each other in “10 μM migalastat α-Gal A activity (% WT)” value: 88.5 ± 6.3 % WT for the first, 95.8 ± 7.9 % WT for the second.

First: B7
Second: B8
The “10 μM migalastat α-Gal A activity (% WT)” value of the first is higher: 85.8 ± 5.8 % WT for the first, 18 ± 2.6 % WT for the second.

First: B9
Second: B10
The “10 μM migalastat α-Gal A activity (% WT)” value of the first is higher: 114.8 ± 8 % WT for the first, 54.5 ± 3.8 % WT for the second.

First: B11
Second: B12
The “10 μM migalastat α-Gal A activity (% WT)” value of the first is higher: 83.4 ± 4.6 % WT for the first, 34.1 ± 3.3 % WT for the second.

In the case of B13, the “10 μM migalastat α-Gal A activity (% WT)” value is reported as 93.4 ± 7.3 % WT.

Same assay, conditions: absence of migalastat; percentage of baseline wild-type α-Gal A activity; mean ± SEM

First: B1
Second: B2
The “Baseline α-Gal A activity (% WT)” value of the first is higher: 29.4 ± 2.2 % WT for the first, 23.9 ± 1.6 % WT for the second.

First: B3
Second: B4
The “Baseline α-Gal A activity (% WT)” value of the first is higher: 16.5 ± 1.2 % WT for the first, 8.8 ± 1.2 % WT for the second.

B5 and B6 are within error of each other in “Baseline α-Gal A activity (% WT)” value: 69 ± 5.5 % WT for the first, 70.3 ± 4.1 % WT for the second.

First: B7
Second: B8
The “Baseline α-Gal A activity (% WT)” value of the first is higher: 69.4 ± 4 % WT for the first, 7.8 ± 0.5 % WT for the second.

Compared with B9, B10 is lower in “Baseline α-Gal A activity (% WT)” value: 93.4 ± 6.3 % WT for the first, 41.8 ± 3.1 % WT for the second.

Going from B11 to B12, the “Baseline α-Gal A activity (% WT)” value falls from 60.8 ± 3.1 % WT to 23.9 ± 3 % WT.

B13 was tested, and the “Baseline α-Gal A activity (% WT)” value was 65.9 ± 5.1 % WT.

Same assay, conditions: lysates of HEK-293 cells transfected with the mutant form, incubated 5 days in the absence of migalastat; mean ± SEM

B1 and B2 are within error of each other in “Baseline α-Gal A activity” value: 11157 ± 776 nmol/mg/h for the first, 10465 ± 624 nmol/mg/h for the second.

Going from B3 to B4, the “Baseline α-Gal A activity” value falls from 7311 ± 556 nmol/mg/h to 3034 ± 340 nmol/mg/h.

B5 and B6 are within error of each other in “Baseline α-Gal A activity” value: 24223 ± 1555 nmol/mg/h for the first, 25264 ± 1668 nmol/mg/h for the second.

Going from B7 to B8, the “Baseline α-Gal A activity” value falls from 24969 ± 1730 nmol/mg/h to 3368 ± 179 nmol/mg/h.

First: B9
Second: B10
The “Baseline α-Gal A activity” value of the first is higher: 32963 ± 1757 nmol/mg/h for the first, 18091 ± 1103 nmol/mg/h for the second.

Compared with B11, B12 is lower in “Baseline α-Gal A activity” value: 21896 ± 1232 nmol/mg/h for the first, 10144 ± 1069 nmol/mg/h for the second.

B13 was tested, and the “Baseline α-Gal A activity” value was 23382 ± 1548 nmol/mg/h.

Same assay, conditions: lysates of HEK-293 cells transfected with the mutant form, incubated 5 days with 10 μM migalastat; mean ± SEM

Going from B1 to B2, the “10 μM migalastat α-Gal A activity” value falls from 19875 ± 1502 nmol/mg/h to 14682 ± 993 nmol/mg/h.

B3 and B4 are within error of each other in “10 μM migalastat α-Gal A activity” value: 10493 ± 561 nmol/mg/h for the first, 9885 ± 794 nmol/mg/h for the second.

B5 and B6 are within error of each other in “10 μM migalastat α-Gal A activity” value: 31835 ± 2399 nmol/mg/h for the first, 34635 ± 3117 nmol/mg/h for the second.

Compared with B7, B8 is lower in “10 μM migalastat α-Gal A activity” value: 31289 ± 2550 nmol/mg/h for the first, 7489 ± 936 nmol/mg/h for the second.

Compared with B9, B10 is lower in “10 μM migalastat α-Gal A activity” value: 41024 ± 3001 nmol/mg/h for the first, 23672 ± 1428 nmol/mg/h for the second.

Going from B11 to B12, the “10 μM migalastat α-Gal A activity” value falls from 29920 ± 1808 nmol/mg/h to 14707 ± 1289 nmol/mg/h.

With B13 the “10 μM migalastat α-Gal A activity” value was 33479 ± 2746 nmol/mg/h.
